What was measured:
[1] = biological target: RNase E (1-850), catalytically inactive, truncated degradosome scaffold;RhlB;Enolase D303N;D346N (Escherichia coli;Escherichia coli;Escherichia coli) (UniProt P21513+P0A8J8+P0A6P9); experiment: SEC-SAXS; settings: SEC-SAXS buffer not given in the material. EMSA (30S ribosomal subunit, not listed because it is a ribonucleoprotein): 40 mM Tris-HCl pH 7.5, 100 mM NaCl …
[2] = biological target: RNase E (1-850) (E. coli) (UniProt P21513); experiment: AUC; sedimentation velocity, truncated degradosome at 4 mg/ml in buffer S6 (50 mM Tris-HCl pH 7.5, 400 mM NaCl, 100 mM KCl, 5 mM MgCl2, 1 mM TCEP, 0.02% beta-DDM, 10% glycerol), 4 C

stoichiometry N [2] | Substance | binding [1]
 | GAAGCUGUUUUGGCGGAUGAGAGAAGAUUUUCAGCCUGAUACAGAUUAAAUCAGAACGCAGAAGCGGUCUGAUAAAACAGAAUUUGCCUGGCGGCAGUAGCGCGGUGGUCCCACCUGACCCCAUGCCGAACUCAGAAGUGAAACGCCGUAGCGCCGAUGGUAGUGUGGGGUCUCCCCAUGCGAGAGUAGGGAACUGCCAGGCAUCAAAUAAAACGAAAGGCUCAGUCGAAAGACUGGGCCUUUCG [9S RNA (5S rRNA precursor)] | binds
4 | RNase E (1-850) (from UniProt P21513 1-850) (domain or fragment) | 

— publication PMC7613265
